Key:
[1] = biological target: T1, human BBS2 L349W, c-Myc-tagged (human, UniProt Q9BXC9 1-721, L349W); experiment: co-IP
T1 sequence (looked up): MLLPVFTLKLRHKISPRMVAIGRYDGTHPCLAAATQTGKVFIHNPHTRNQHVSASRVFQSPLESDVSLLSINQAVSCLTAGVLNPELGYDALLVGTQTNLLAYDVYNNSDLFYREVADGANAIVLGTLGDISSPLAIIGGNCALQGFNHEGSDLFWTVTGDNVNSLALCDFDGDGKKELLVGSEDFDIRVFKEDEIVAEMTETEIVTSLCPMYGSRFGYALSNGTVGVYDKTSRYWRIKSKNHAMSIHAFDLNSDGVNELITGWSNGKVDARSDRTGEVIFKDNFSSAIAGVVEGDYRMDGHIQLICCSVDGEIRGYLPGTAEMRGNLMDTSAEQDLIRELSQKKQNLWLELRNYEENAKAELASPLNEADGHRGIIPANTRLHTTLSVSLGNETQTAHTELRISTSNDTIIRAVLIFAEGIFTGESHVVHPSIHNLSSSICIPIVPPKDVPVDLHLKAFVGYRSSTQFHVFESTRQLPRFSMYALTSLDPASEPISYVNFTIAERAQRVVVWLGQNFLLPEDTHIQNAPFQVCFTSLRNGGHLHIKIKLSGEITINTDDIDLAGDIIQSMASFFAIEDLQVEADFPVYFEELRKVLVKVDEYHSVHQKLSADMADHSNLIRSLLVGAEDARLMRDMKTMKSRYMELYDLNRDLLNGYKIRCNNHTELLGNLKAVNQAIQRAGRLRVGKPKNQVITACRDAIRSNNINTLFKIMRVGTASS

[2] = biological target: T2, human BBS2 (Bardet-Biedl syndrome protein 2), wild type, HPC4- and c-Myc-tagged (human, UniProt Q9BXC9 1-721); experiment: pull-down
T2 sequence (looked up): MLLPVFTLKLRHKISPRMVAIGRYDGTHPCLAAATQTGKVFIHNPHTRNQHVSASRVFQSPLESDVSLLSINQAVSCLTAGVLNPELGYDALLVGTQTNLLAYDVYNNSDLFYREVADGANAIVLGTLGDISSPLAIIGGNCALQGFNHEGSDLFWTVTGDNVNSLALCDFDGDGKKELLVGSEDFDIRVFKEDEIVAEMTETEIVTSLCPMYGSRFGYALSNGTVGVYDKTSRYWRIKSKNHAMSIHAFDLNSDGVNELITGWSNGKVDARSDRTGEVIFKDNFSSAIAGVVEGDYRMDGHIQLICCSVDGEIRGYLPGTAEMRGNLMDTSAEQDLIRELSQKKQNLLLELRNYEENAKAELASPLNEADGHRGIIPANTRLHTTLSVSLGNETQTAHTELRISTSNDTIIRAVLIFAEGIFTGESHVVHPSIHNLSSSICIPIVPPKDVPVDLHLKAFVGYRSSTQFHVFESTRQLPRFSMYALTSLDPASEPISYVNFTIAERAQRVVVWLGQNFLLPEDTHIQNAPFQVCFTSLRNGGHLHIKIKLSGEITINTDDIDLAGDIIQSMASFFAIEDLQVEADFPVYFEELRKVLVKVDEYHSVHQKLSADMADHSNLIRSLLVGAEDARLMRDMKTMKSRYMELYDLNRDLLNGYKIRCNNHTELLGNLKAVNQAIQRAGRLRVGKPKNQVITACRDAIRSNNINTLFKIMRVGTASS

decrease in binding relative to WT [1]: 30%
binding result [2]: binds
B1: human BBS7 (Bardet-Biedl syndrome protein 7), wild type, Flag-Strep-tagged (natural protein, UniProt Q8IWZ6 1-715, looked up)
chain: MDLILNRMDYLQVGVTSQKTMKLIPASRHRATQKVVIGDHDGVVMCFGMKKGEAAAVFKTLPGPKIARLELGGVINTPQEKIFIAAASEIRGFTKRGKQFLSFETNLTESIKAMHISGSDLFLSASYIYNHYCDCKDQHYYLSGDKINDVICLPVERLSRITPVLACQDRVLRVLQGSDVMYAVEVPGPPTVLALHNGNGGDSGEDLLFGTSDGKLALIQITTSKPVRKWEIQNEKKRGGILCIDSFDIVGDGVKDLLVGRDDGMVEVYSFDNANEPVLRFDQMLSESVTSIQGGCVGKDSYDEIVVSTYSGWVTGLTTEPIHKESGPGEELKINQEMQNKISSLRNELEHLQYKVLQERENYQQSSQSSKAKSAVPSFGINDKFTLNKDDASYSLILEVQTAIDNVLIQSDVPIDLLDVDKNSAVVSFSSCDSESNDNFLLATYRCQADTTRLELKIRSIEGQYGTLQAYVTPRIQPKTCQVRQYHIKPLSLHQRTHFIDHDRPMNTLTLTGQFSFAEVHSWVVFCLPEVPEKPPAGECVTFYFQNTFLDTQLESTYRKGEGVFKSDNISTISILKDVLSKEATKRKINLNISYEINEVSVKHTLKLIHPKLEYQLLLAKKVQLIDALKELQIHEGNTNFLIPEYHCILEEADHLQEEYKKQPAHLERLYGMITDLFIDKFKFKGTNVKTKVPLLLEILDSYDQNALISFFDAA

Reference: paper doi:10.1101/699223 (bioRxiv, 2019)
